Measurements as given in paper PMC11499256, “Two-factor authentication underpins the precision of the piRNA pathway” (Nature, 2024).
Values belong to the binder of their own block, whether it stands above or below them.

Columns and labels:
[1] = molecular target: T1, His-tagged SPIN1 (49–262) (mouse, UniProt Q61142 49-262); assay: SEC; SPIN1–SPOCD1 fragment 1b complex purified on an S200 increase column before the nucleosome pull-down; details: both partners purified
T1 construct: mouse SPIN1 (Q61142), amino acids 49–262; 'Purified as above' would include cleavage of the tag, yet the protein is called His-tagged and detected by anti-His; source: E. coli BL21 (DE3), purified
T1 sequence (Q61142 49-262): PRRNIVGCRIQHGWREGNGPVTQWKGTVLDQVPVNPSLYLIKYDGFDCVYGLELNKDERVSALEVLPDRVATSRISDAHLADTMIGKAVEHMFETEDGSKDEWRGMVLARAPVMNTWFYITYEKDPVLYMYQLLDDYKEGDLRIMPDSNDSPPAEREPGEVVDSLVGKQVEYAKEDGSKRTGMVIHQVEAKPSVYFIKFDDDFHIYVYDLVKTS

[2] = molecular target: T2, mouse SPIN1 (amino acids 49–262), recombinant, His tag cleaved (mouse, UniProt Q61142 49-262); assay: pull-down; co-precipitation of recombinant proteins, Coomassie gel, n = 3; details: both partners purified
T2 construct: mouse SPIN1 (Q61142), amino acids 49–262; The SPIN1 construct was cleaved with GST–3C protease overnight; also called recombinant SPIN1; source: E. coli BL21 (DE3), purified (His-tag column, 3C cleavage, ion exchange, SEC)
T2 sequence (Q61142 49-262): as above

- binding result [1]: binds
B1: His-tagged SPOCD1 fragment 1b (domain or fragment, mouse, UniProt B1ASB6 203-409, looked up)
chain: VTQEPLQSPALYPEVLTEDSTDQQEVQPAFVVGSPGTPPDPVGPEDKAQSGSRMELEQGLSAPANSCASSPEPLGGLDGAPLEQRRPTHVKKRPWTSPDDSSQDHAEGASKKDFPRLEARVPRGVKTVYYVYTGSGIRLVGAASSSQPGQIEPLEELDTNSARRKRRPTTAHPTPCQSDPSETENAEPHQQRAEDPGEQGMTPLDAG
notes: source: E. coli BL21 (DE3), purified

- binding result [2]: binds
B2: mouse GST–SPOCD1-F1b (amino acids 203–409), recombinant (domain or fragment, UniProt B1ASB6 203-409, looked up)
chain: B1 chain
notes: pET-based backbone; also called GST–F1b; SPOCD1 fragment 1b; source: E. coli BL21 (DE3), purified (glutathione sepharose, dialysis)
